Data reported in paper PMC3229523, “Identification of Lactoferricin B Intracellular Targets Using an Escherichia coli Proteome Chip” (PLoS ONE, 2011).
Ends that are not written are not given here. * marks the point of attachment. Biotin = O=C1N[C@H]2[C@H](CS[C@H]2CCCCC(=O)*)N1

How the values were obtained:
Assay in all cases: peptide or protein array; E. coli proteome chip: purified His-tagged proteins printed in duplicate on Fullmoon slides, blocked with 1% BSA; 10 nM N-terminal biotinylated LfcinB with 1% BSA, room temperature, 1 h; detected with DyLight 649-labeled streptavidin, ratio to DyLight 549-labeled anti-His antibody; ProCAT normalisation, local cut-off; triplicate chips
Conditions in all cases: both partners purified
HolC = biological target: T1, HolC (E. coli K-12, UniProt P28905 1-147)
T1 construct: HolC, E. coli K-12
T1 sequence (P28905 whole entry): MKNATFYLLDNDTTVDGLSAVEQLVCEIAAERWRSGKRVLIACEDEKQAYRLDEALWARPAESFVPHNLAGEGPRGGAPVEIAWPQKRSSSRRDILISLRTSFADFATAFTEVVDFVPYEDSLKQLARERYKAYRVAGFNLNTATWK

YbgE = biological target: T2, YbgE (E. coli K-12, UniProt P0AAV0 1-97)
T2 construct: YbgE, E. coli K-12
T2 sequence (looked up): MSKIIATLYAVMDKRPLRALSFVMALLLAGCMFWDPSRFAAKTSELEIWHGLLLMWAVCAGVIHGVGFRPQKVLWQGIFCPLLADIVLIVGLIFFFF

XerB = biological target: T3, XerB (E. coli K-12, UniProt P68767 1-503)
T3 construct: XerB, E. coli K-12
T3 sequence (looked up): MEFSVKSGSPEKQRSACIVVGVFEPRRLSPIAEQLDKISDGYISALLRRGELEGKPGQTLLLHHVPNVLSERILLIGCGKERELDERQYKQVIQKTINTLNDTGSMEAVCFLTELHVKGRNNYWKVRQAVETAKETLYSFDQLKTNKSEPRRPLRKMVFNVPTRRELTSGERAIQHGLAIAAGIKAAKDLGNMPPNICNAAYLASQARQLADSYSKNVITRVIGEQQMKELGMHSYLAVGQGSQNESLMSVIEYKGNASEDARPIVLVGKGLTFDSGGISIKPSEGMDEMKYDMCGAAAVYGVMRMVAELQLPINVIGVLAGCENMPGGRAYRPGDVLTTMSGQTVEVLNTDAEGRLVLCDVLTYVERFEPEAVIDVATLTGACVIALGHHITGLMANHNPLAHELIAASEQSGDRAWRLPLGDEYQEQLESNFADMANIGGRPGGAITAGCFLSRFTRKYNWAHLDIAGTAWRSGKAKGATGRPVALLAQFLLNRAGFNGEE

CreB = biological target: T4, CreB (E. coli K-12, UniProt P08368 1-229)
T4 construct: CreB, E. coli K-12
T4 sequence (looked up): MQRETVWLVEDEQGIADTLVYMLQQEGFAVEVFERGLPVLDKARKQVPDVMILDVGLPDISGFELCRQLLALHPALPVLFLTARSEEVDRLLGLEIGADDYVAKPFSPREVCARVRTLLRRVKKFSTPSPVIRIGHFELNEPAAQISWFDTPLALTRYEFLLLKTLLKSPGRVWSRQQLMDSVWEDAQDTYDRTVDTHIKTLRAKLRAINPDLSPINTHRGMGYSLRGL

HyaF = biological target: T5, HyaF (E. coli K-12, UniProt P19932 1-285)
T5 construct: HyaF, E. coli K-12
T5 sequence (looked up): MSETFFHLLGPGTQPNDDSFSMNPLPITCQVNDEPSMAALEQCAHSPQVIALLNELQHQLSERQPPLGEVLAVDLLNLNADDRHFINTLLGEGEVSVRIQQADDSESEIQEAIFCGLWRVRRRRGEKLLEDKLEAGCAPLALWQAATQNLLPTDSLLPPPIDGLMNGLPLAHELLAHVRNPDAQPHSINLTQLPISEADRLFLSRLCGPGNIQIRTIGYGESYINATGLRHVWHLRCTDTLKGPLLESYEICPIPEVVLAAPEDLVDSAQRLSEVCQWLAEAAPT

YgfJ = biological target: T6, YgfJ (E. coli K-12, UniProt Q46810 1-192)
T6 construct: YgfJ, E. coli K-12
T6 sequence (looked up): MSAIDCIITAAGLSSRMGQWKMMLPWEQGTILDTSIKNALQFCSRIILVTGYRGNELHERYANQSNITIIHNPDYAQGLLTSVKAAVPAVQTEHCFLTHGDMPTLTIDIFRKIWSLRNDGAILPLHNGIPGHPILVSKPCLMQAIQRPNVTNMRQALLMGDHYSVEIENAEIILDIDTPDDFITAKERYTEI

GidB = biological target: T7, GidB (E. coli K-12, UniProt P0A6U5 1-207)
T7 construct: GidB, E. coli K-12
T7 sequence (looked up): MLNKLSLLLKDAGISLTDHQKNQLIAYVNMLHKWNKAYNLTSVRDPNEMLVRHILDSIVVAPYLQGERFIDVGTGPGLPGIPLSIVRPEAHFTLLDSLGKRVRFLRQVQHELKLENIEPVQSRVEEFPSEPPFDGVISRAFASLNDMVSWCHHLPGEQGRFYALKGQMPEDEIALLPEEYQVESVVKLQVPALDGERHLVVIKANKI

Measured: binding result

B1: N-terminal biotinylated Lactoferricin B (peptide, UniProt P24627 36-60, looked up)
peptide: Biotin-FKCRRWQWRMKKLGAPSITCVRRAF
modifications: ends and bridges not checked
notes: lactoferricin B (LfcinB), cationic antimicrobial peptide of 25 amino acids; also called biotinylated LfcinB; biotin-labeled LfcinB; source: bought: Kelowna Inc
binds: all assays above
